Patent US20060094649A1 (published 2006)
Values belong to the binder of their own block, whether it stands above or below them. Non-standard residues stand in square brackets, D forms with d. No end group written: not given here. Abu = CC[C@H](N)C(=O)O

Experiments:
HLA-B*1801 = HLA-B*1801 (human); assay: competition with labeled probe peptide, purified HLA class I
HLA-A*3101 = HLA-A*3101 (human); assay: competition vs 125I probe, purified HLA
HLA-B*4403 [1] = biological target: HLA-B*4403 (human); assay: competition with labeled probe peptide, purified HLA class I
HLA-B*4403 [2] = biological target: HLA-B*4403 (human); assay: competition vs labelled reference peptide on HLA class I
HLA-B*4501 = HLA-B*4501 (human); assay: as above
HLA-A*3301 = HLA-A*3301 (human); assay: competition vs 125I probe, purified HLA
HLA-B*4403 [3] = biological target: HLA-B*4403 (human); assay: competitive inhibition of labeled probe peptide, purified HLA

IC50 (HLA-B*1801): 5.4 nM
B1: LESEFQAAL (MAGE3, position printed 301) (peptide)
peptide: LESEFQAAL

IC50 (HLA-A*3101): 9000 nM
B2: p53.240.V2B3K9 (peptide)
peptide: SV[Abu]MGGMNK

IC50 (HLA-B*4403 [1]): 950 nM
B3: PEEGLEARGEA (MAGE2, position 12) (peptide)
peptide: PEEGLEARGEA

IC50 (HLA-B*4403 [2]): 2.7 nM
B4: GEGLACHQLCA (Her2/neu position 506, 11-mer) (peptide)
peptide: GEGLACHQLCA

IC50 (HLA-A*3101): 720 nM
B5: p53.240.B3K10 (peptide)
peptide: SS[Abu]MGGMNRK

IC50 (HLA-B*4501): 401 nM
B6: EEGACQPCPI (Her2/neu position 619, 10-mer) (peptide)
peptide: EEGACQPCPI

IC50 (HLA-A*3301): 85 nM
B7: p53.124.B1V2R9 (peptide)
peptide: [Abu]VYSPALNR

IC50 (HLA-B*4403 [3]): 7.6 nM
B8: MAGE2 155 SEYLQLVFGIEVV (peptide)
peptide: SEYLQLVFGIEVV
